Results: patent publication US20070172470A1, “Phosphatase regulation of nucleic acid transcription” (The Regents of the University of California, priority 2003, published 2007)
Values belong to the molecule of their own block, whether it stands above or below them.

Experiments:
RNAP IIO = target: T1, RNAP IIO (Bos taurus, UniProt G3MZY8); assay: CTD phosphatase assay with RNAP IIO as substrate; type: biochemical, calf
T1 construct: Calf thymus RNAP IIA was purified; from tissue; host or cells: calf thymus
Procedure: (§1) FIGS. 2C and 2D show a CTD phosphatase assay of FCP1 and SCP1 on GST-CTDo and RNAP IIO prepared by MAPK2/ERK2. Increasing amounts of FCP1 or GST-SCP1 214 were assayed in the presence of 75 fmol GST-CTDo (lanes 1-6), 75 fmol RNAP IIO (lanes 7-12), or 75 fmol GST-CTDo and 75. fmol RNAP IIO (lanes 13-18). Both GST-CTDo and RNAP IIO substrates were prepared by the in vitro phosphorylation of CKII-labeled GST-CTDa or RNAP IIA by MAPK2/ERK2. All reactions were carried out in the presence of 7 pmol RAP74. CTD dephosphorylation of both GST-CTDo and RNAP IIO is shown by the increase in mobility of GST-CTDo to GST-CTDa and subunit IIo to IIa, respectively. The difference in the intensity of radiolabeled GST-CTDoand that of radiolabeled subunit IIo is not a reflection of a difference in the amount of substrates present, but of the higher efficiency with which CKII incorporates radiolabeled phosphates onto the most C-terminal serine of GST-CTDa compared to subunit. IIa.
Increasing amounts of GST-SCP1 214 were assayed in the presence of 3.7 fmol RNAP IIO prepared by CTDK1/CTDK2, TFIIH, P-TEFb, MAPK2/ERK2 and Cdc2 kinase. All reactions were carried out in-the presence of 7 pmol. RAP74. CTD dephosphorylation of RNAP IIO isozymes. by qSTSCP1 214 is shown by an increase in mobility of subunit IIo to that of IIa. The results are summarized in the graph showing the percent of RNAP IIO remaining as a function of increasing SCP1 concentrations.
Preparation and Purification of ^32P-RNAP IIO Isozymess and ^32P-GST-CTDo: Calf thymus RNAP IIA was purified by the method of Hodo and Blatti (30) with modifications as described by Kang and Dahmus (31). Specific isozymes of ^32p-labeled RNAP IIO were prepared by phosphorylation at the most C-terminal serine (CKII site) in the largest subunit of purified RNAP IIA with recombinant CKII and […], followed by CTD phosphorylation in the presence of 2 mM ATP with either purified CTDK1/CTDK2, TFIIH, P-TEFb, recombinant MAPK2/ERK2 or recombinant Cdc2 kinase. The RNAP IIO isozymes were individually purified over a DE53 column with a step elution of 500 mM KCl (28). Because only the most C-terminal serine is labeled with ^32p and lies outside. the consensus repeat, dephosphorylation by CTD phosphatase results in an electrophoretic mobility shift in SDS-PAGE of subunit IIo to the position of subunit IIa without the loss of label. Similarly, ^32P-labeled GST-CTDo was prepared from GST-CTDa by CKII followed by MAPK2/ERK2. GST-CTDo was purified over a glutathione-agarose column with a step elution of 15 mM glutathione.
CTD phosphatase assays utilizing RNAP IIO and GST-CTDo as substrate were performed as described previously (32) with minor modifications. Reactions were performed in 20 μl of CTD phosphatase buffer (50 mM Tris-HCl, pH 7.9, 10 mM MgCl2, 20% glycerol, 0.025% Tween 80, 0.1 mM EDTA, 5 mM DTT) in the presence of 20 mM KCl. Each reaction contained specified amounts of GST-CTDo and/or RNAP IIO and was carried out in the presence of 7 pmol RAP74. Reactions were initiated by the addition of FCP1 or SCP1 and incubated at 30° C. for 30 minutes. Assays were terminated by the addition of 5× Laemmli buffer, and RNAP II subunits and GST-CTD were resolved on a 5% SDS-PAGE gel. The gel images were developed by autoradiography and scanned by Molecular Dynamics Image Scanner Storm 860 in the phosphor screen mode. Data were quantitatively analyzed by ImageQuant software.

[1] = tested on: P19 mouse embryonic stem cells; assay: Neuronal differentiation of P19 cells; type: cell-based; settings: clonal P19 line, retinoic acid, selective medium
Procedure: P19 cells, C, differentiated GFP expressing P19 cells; D, differentiated SCP1-expressing P19 cells; F, differentiated REST/NRSF-expressing P19 cells. Numbers of NLC per field are shown. *p=0.001 compared to WT 19 cells; **p=0.008 compared to WT P19 cell using student's t-test.
P19 stably expressing REST/NRSF.
These cell lines were maintained in α-MEM/10%FBS with […] G418. To induce neuronal differentiation, P19 cells were allowed to aggregate in bacterial grade petri-dishes (Fisher) at a seeding density of 1×10^5cells/ml in the presence of 1×10^−6M all-trans retinoic acid. After 3 days of aggregation, cells were dissociated into single cells by 0.05% trypsin-0.53 mM EDTA (Gibco). Trypsin was removed by centrifugation and the cells were plated in 6 cm tissue culture dishes (Nunc). at a density of 1×10^5 cells/cm^2 in Neurobasal medium/N2 supplement (Invitrogen) in the presence or absence of 1 μg/ml fibronectin (Invitrogen). The cells were cultured for 5 days after which average cell numbers/field were determined. Cells were either lysed to prepare total RNA (Rneasy kit, Qiagen) or stained with TuJ1 antibody (Babco).
For immunostaining, cells were fixed for 10 mins with 4% paraformaldehyde. TuJ1 antibody was used at 1:2000 and secondary antibody used was FITC-conjuagated anti-mouse (1:3000).

[2] = tested on: 28 aa CTD heptad repeat peptide with Ser 5 phosphate or Ser 2 phosphate; assay: CTD phosphopeptide phosphatase assay (malachite green); type: biochemical; settings: 25 μM phosphopeptide, 60 mins at 37° C.
Procedure: The indicated amounts of. SCP1 were incubated with the phosphopeptide substrate and phosphate released was measured as described infra.
N-terminal biotinylated CTD phosphopeptides, comprised of 4 tandem repeats YSPTSPS and containing phosphoserine at position 2 or position 5, were synthesized (Alpha Diagnostics, San Antonio, Tex.). Phosphatase reaction mixtures (50 μl) containing 50 mM Tris-acetate, pH 5.5, 10 mM MgCl2, 0.5 mM DTT, 10% glycerol, 25 μM of phosphopeptide and wild type or mutant SCP1 were incubated for 60 mins at 37° C. The reactions were quenched by adding 0.5 ml of malachite green (Biomol). Phosphate release was measured at A620 and quantified relative to a phosphate standard curve.

GST-CTDo = target: T2, GST-CTDo (Homo sapiens, UniProt P24928); assay: CTD phosphatase assay with GST-CTDo (rCTDo) as substrate; type: biochemical
T2 construct: made in house
Procedure: as §1
Preparation and Purification of ^32P-RNAP IIO Isozymess and ^32P-GST-CTDo: Calf thymus RNAP IIA was purified by the method of Hodo and Blatti (30) with modifications as described by Kang and Dahmus (31). […]
CTD phosphatase assays utilizing RNAP IIO and GST-CTDo as substrate were performed as described previously (32) with minor modifications. […] Data were quantitatively analyzed by ImageQuant software.

T2 sequence (P24928 1593-1960 A1835T, one chain of several): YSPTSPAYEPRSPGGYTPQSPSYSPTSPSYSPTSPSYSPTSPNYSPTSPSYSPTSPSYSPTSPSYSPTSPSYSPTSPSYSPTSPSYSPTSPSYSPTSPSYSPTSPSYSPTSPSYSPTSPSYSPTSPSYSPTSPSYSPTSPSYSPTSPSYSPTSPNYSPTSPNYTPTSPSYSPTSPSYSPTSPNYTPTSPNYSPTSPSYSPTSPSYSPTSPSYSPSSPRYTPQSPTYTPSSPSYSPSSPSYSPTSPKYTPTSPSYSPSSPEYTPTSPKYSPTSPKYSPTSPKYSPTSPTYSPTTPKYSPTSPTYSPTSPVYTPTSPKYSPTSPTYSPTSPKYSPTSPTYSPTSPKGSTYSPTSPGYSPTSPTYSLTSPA

- dephosphorylation of Ser 5 versus Ser 2 phosphopeptide [2]: did not act on either phosphopeptide
- concentration without dephosphorylation of rCTDo, relative to that required to dephosphorylate RNAP IIO (GST-CTDo): > 100 times
- dephosphorylation of RNAP IIO prepared with Cdc2 kinase (RNAP IIO; 3.7 fmol RNAP IIO, 7 pmol RAP74): efficiently dephosphorylates
B3: FCP1: recombinant CTD phosphatase FCP1, class C phosphatase with BRCT domain (protein)
chain: MEVPAAGRVPAEGAPTAAVAEVRCPGPAPLRLLEWRVAAGAAVRIGSVLAVFEAAASAQSSGASQSRVASGGCVRPARPERRLRSERAGVVRELCAQPGQVVAPGAVLVRLEGCSHPVVMKGLCAECGQDLTQLQSKNGKQQVPLSTATVSMVHSVPELMVSSEQAEQLGREDQQRLHRNRKLVLMVDLDQTLIHTTEQHCQQMSNKGIFHFQLGRGEPMLHTRLRPHCKDFLEKIAKLYELHVFTFGSRLYAHTIAGFLDPEKKLFSHRILSRDECIDPFSKTGNLRNLFPCGDSMVCIIDDREDVWKFAPNLITVKKYVYFQGTGDMNAPPGSRESQTRKKVNHSRGTEVSEPSPPVRDPEGVTQAPGVEPSNGLEKPARELNGSEAATPRDSPRPGKPDERDIWPPAQAPTSSQELAGAPEPQGSCAQGGRVAPGQRPAQGATGTDLDFDLSSDSESSSESEGTKSSSSASDGESEGKRGRQKPKAAPEGAGALAQGSSLEPGRPAAPSLPGEAEPGAHAPDKEPELGGQEEGERDGLCGLGNGCADRKEAETESQNSELSGVTAGESLDQSMEEEEEEDTDEDDHLIYLEEILVRVHTDYYAKYDRYLNKEIEEAPDIRKIVPELKSKVLADVAIIFSGLHPTNFPIEKTREHYHATALGAKILTRLVLSPDAPDRATHLIAARAGTEKVLQAQECGHLHVVNPDWLWSCLERWDKVEEQLFPLRDDHTKAQRENSPAAFPDREGVPPTALFHPMPVLPKAQPGPEVRIYDSNTGKLIRTGARGPPAPSSSLPIRQEPSSFRAVPPPQPQMFGEELPDAQDGEQPGPSRRKRQPSMSETMPLYTLCKEDLESMDKEVDDILGEGSDDSDSEKRRPEEQEEEPQPRKPGTRRERTLGAPASSERSAAGGRGPRGHKRKLNEEDAASESSRESSNEDEGSSSEADEMAKALEAELNDLM

- dephosphorylation of both RNAP IIO and GST-CTDo (GST-CTDo; substrates prepared by MAPK2/ERK2, 75 fmol each, 7 pmol RAP74): comparable efficiency
B4: GST-SCP1 214: GST fusion of the 214 aa spliced variant of SCP1, SEQ ID NO:8 (protein)
chain: MMGRPCLLTAGRPCLWRRMAPSLRQTPVQYLLPEAKAQDSDKICVVIDLDETLVHSSFKPVNNADFIIPVEIDGVVHQVYVLKRPHVDEFLQRMGELFECVLFTASLAKYADPVADLLDKWGAFRARLFRESCVFHRGNYVKDLSRLGRDLRRVLILDNSPASYVFHPDNAVPVASWFDNMSDTELHDLLPFFEQLSRVDDVYSVLRQPRPGS
modifications: left off: a dimerising Fc or GST

Further lines, the molecule ahead of its results:

B1: SCP2: small CTD phosphatase-2, SEQ ID NO:4 (protein, listed as Homo sapiens)
chain: MEHGSIITQARREDALVLTKQGLVSKSSPKKPRGRNIFKALFCCFRAQHVGQSSSSTELAAYKEEANTIAKSDLLQCLQYQFYQIPGTCLLPEVTEEDQGRICVVIDLDETLVHSSFKPINNADFIVPIEIEGTTHQVYVLKRPYVDEFLRRMGELFECVLFTASLAKYADPVTDLLDRCGVFRARLFRESCVFHQGCYVKDLSRLGRDLRKTLILDNSPASYIFHPENAVPVQSWFDDMADTELLNLIPIFEELSGAEDVYTSLGAAAGPLACPASKRRPSQ
- CTD phosphatase activity when RNAP IIO is utilized as substrate (RNAP IIO; compared with SCP1): comparable CTD phosphatase activity

B2: REST/NRSF: RE-1 silencing transcription factor / Neuron-Restrictive Silencer Factor (protein, UniProt Q13127 1-1097, looked up)
RE1-silencing transcription …: MATQVMGQSSGGGGLFTSSGNIGMALPNDMYDLHDLSKAELAAPQLIMLANVALTGEVNGSCCDYLVGEERQMAELMPVGDNNFSDSEEGEGLEESADIKGEPHGLENMELRSLELSVVEPQPVFEASGAPDIYSSNKDLPPETPGAEDKGKSSKTKPFRCKPCQYEAESEEQFVHHIRVHSAKKFFVEESAEKQAKARESGSSTAEEGDFSKGPIRCDRCGYNTNRYDHYTAHLKHHTRAGDNERVYKCIICTYTTVSEYHWRKHLRNHFPRKVYTCGKCNYFSDRKNNYVQHVRTHTGERPYKCELCPYSSSQKTHLTRHMRTHSGEKPFKCDQCSYVASNQHEVTRHARQVHNGPKPLNCPHCDYKTADRSNFKKHVELHVNPRQFNCPVCDYAASKKCNLQYHFKSKHPTCPNKTMDVSKVKLKKTKKREADLPDNITNEKTEIEQTKIKGDVAGKKNEKSVKAEKRDVSKEKKPSNNVSVIQVTTRTRKSVTEVKEMDVHTGSNSEKFSKTKKSKRKLEVDSHSLHGPVNDEESSTKKKKKVESKSKNNSQEVPKGDSKVEENKKQNTCMKKSTKKKTLKNKSSKKSSKPPQKEPVEKGSAQMDPPQMGPAPTEAVQKGPVQVEPPPPMEHAQMEGAQIRPAPDEPVQMEVVQEGPAQKELLPPVEPAQMVGAQIVLAHMELPPPMETAQTEVAQMGPAPMEPAQMEVAQVESAPMQVVQKEPVQMELSPPMEVVQKEPVQIELSPPMEVVQKEPVKIELSPPIEVVQKEPVQMELSPPMGVVQKEPAQREPPPPREPPLHMEPISKKPPLRKDKKEKSNMQSERARKEQVLIEVGLVPVKDSWLLKESVSTEDLSPPSPPLPKENLREEASGDQKLLNTGEGNKEAPLQKVGAEEADESLPGLAANINESTHISSSGQNLNTPEGETLNGKHQTDSIVCEMKMDTDQNTRENLTGINSTVEEPVSPMLPPSAVEEREAVSKTALASPPATMAANESQEIDEDEGIHSHEGSDLSDNMSEGSDDSGLHGARPVPQESSRKNAKEALAVKAAKGDFVCIFCDRSFRKGKDYSKHLNRHLVNVYYLEEAAQGQE
- effect on neuronal differentiation [1]: prevented neuronal differentiation
